Experimental findings from article PMC7958410, “Hepatitis B virus X protein promotes vimentin expression via LIM and SH3 domain protein 1 to facilitate epithelial-mesenchymal transition and hepatocarcinogenesis” (Cell Communication and Signaling : CCS, 2021) are described below.

The target in the test is T1, His-vimentin (UniProt P08670 1-466).
T1 construct: vimentin; also called vimentin with His Tag; source: E. coli DH5α, purified by His-beads
Briefly: pull-down; GST fusion bound to glutathione-Sepharose beads incubated with purified His-tagged protein at 4 °C; washed 3 times with binding buffer; western blot. As to conditions: both partners purified.

T1 sequence (P08670 whole entry): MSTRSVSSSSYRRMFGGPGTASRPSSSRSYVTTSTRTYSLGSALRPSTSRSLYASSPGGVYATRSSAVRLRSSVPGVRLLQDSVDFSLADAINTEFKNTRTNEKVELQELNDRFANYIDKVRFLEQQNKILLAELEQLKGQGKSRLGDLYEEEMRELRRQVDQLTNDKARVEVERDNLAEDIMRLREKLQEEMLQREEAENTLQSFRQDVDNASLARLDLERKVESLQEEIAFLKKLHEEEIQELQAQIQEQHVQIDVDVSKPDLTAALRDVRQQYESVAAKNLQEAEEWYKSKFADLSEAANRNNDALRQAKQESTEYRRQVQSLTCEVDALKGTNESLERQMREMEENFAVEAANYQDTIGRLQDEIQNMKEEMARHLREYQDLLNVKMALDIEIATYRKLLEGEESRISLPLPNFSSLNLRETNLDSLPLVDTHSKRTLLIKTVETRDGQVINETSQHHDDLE

B1: GST-LASP1 (natural protein, UniProt Q14847 1-261, looked up)
chain: MNPNCARCGKIVYPTEKVNCLDKFWHKACFHCETCKMTLNMKNYKGYEKKPYCNAHYPKQSFTMVADTPENLRLKQQSELQSQVRYKEEFEKNKGKGFSVVADTPELQRIKKTQDQISNIKYHEEFEKSRMGPSGGEGMEPERRDSQDGSSYRRPLEQQQPHHIPTSAPVYQQPQQQPVAQSYGGYKEPAAPVSIQRSAPGGGGKRYRAVYDYSAADEDEVSFQDGDTIVNVQQIDDGWMYGTVERTGDTGMLPANYVEAI
notes: LIM and SH3 domain protein 1 (LASP1); also called LASP1 with GST Tag
Consider B1, for which the binding result is recorded as “binds”.
